Experimental data taken from paper PMC7145526, “The mRNA repressor TRIM71 cooperates with Nonsense-Mediated Decay factors to destabilize the mRNA of CDKN1A/p21”.

Target: T1, Flag-TRIM71-NHL (Homo sapiens, UniProt Q2Q1W2 585-868)
T1 sequence: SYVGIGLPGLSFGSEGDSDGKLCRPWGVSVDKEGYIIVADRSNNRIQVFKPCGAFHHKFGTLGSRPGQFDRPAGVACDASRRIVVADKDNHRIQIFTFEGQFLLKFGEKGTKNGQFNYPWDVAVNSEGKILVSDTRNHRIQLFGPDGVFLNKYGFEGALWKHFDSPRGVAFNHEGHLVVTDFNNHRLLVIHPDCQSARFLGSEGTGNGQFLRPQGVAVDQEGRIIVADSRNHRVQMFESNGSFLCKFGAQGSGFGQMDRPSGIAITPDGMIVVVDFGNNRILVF
Experiment: fluorescence polarization; 1x TBST, 30 min, RT; 100 nM 5'-Cy3 RNA, increasing protein concentrations; pH and salt not given
Conditions: protein: recombinant; tags: Flag; label: 5'-Cy3; hairpin (disruptive mutation)

B1: TRE M#3 (SL M#3), loop position III G to C (structured_RNA)
RNA: GUCUUGUCAAGGC
binding result: no binding
